Measured values published in publication PMC11413682.

How the values were obtained:
[1] = target: CUL2^ZYG11B (residues 490–728) (human) (UniProt Q9C0D3); test: ITC; MicroCal iTC200; peptides (0.5–1 mmol/L) in the syringe, CUL2^ZYG11B(490–728) (0.03 mmol/L) in the cell; 18 injections of 2 μL; repeated 3 times
[2] = target: CUL2^ZYG11B (residues 490–728) (human) (UniProt Q9C0D3); test: ITC; SNX11-degron peptide titrated into CUL2^ZYG11B that was pre-incubated with the ORF10 peptide (pre-formed ZYG11B/ORF10 N5 complex)

CUL2^ZYG11B (residues 490–728) (human), sequence (Q9C0D3 490-728): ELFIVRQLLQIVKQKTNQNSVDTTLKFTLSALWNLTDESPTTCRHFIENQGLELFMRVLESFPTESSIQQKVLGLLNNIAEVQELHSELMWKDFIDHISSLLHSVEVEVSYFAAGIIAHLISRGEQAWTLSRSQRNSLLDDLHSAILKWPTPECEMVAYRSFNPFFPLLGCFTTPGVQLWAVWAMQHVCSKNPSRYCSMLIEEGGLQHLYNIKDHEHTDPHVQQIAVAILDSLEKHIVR

SARS-CoV-2 ORF10 N3 peptide
Kd [1]: 14.5 µM

SARS-CoV-2 ORF10 N4 peptide
Kd [1]: 5.18 µM

SNX11-degron peptide
fold lower affinity for CUL2^ZYG11B pre-bound to the ORF10 peptide than for CUL2^ZYG11B alone [2]: 13 fold
